Reference: US20230227538A1 (University of California, published 2023)
Numbering of substitutions follows the chain as printed. “And” between values parts separate entries of the source, which are not always exact repeats. Equal values may be shown once.

Columns and labels:
[1] = biological target: SARS-CoV-2 Spike protein on pseudotyped lentivirus (SARS-CoV-2, UniProt P0DTC2 14-1273); test: cell-based or functional assay
[2] = biological target: T1, SARS-CoV-2 Spike receptor binding domain (RBD) (SARS-CoV-2, UniProt P0DTC2 319-541)
[3] = biological target: SARS-CoV-2 Spike protein on pseudotyped lentivirus (SARS-CoV-2, UniProt P0DTC2 14-1273); test: cell-based or functional assay; remark: listed apart in the source
[4] = biological target: T1, SARS-CoV-2 Spike receptor binding …; test: SPR, biotinylated RBD on a CAP chip

B1: Nb11 (clone pNbCOV011A) (VHH)
VHH: HVQLVESGGGLVQAGGSLRLSCAVSGASAERVGWFRRAPGKEREFVAAIGANGGSTNYLDSVKGRFTISRDNAKNTVYLQMNSLKPQDTAVYYCAARNLETFDYTYWGRGTQVTVSS
IC50, inhibition of pseudovirus infection of ACE2 expressing HEK293T cells [1]: 2400 nM

B2: Nb6 (AeroNab6, NbCOV6, clone pNbCOV006A) (VHH)
VHH: QVQLVESGGGLVQAGGSLRLSCAASGIIFGRNAMGWYRQAPGKERELVAGITRRGSITYYADSVKGRFTISRDNAKNTVYLQMNSLKPEDTAVYYCAADPASPAPGDYWGQGTQVTVSS
notes: also called AeroNab6 MASC monomer; Parent clone (NbCOV6)
EC50 [2]: 190 nM
IC50, inhibition of pseudovirus infection of ACE2 expressing HEK293T cells [3]: 2000 nM
Kd [4]: 41 nM

B3: mNb6-tri (trivalent mNb6 with a 20 amino acid linker) (VHH)
chain: QVQLVESGGGLVQAGGSLRLSCAASGYIFGRNAMGWYRQAPGKERELVAGITRRGSITYYADSVKGRFTISRDNAKNTVYLQMNSLKPEDTAVYYCAADPASPAYGDYWGQGTQVTVSSGGGGSGGGGSGGGGSGGGGSQVQLVESGGGLVQAGGSLRLSCAASGYIFGRNAMGWYRQAPGKERELVAGITRRGSITYYADSVKGRFTISRDNAKNTVYLQMNSLKPEDTAVYYCAADPASPAYGDYWGQGTQVTVSSGGGGSGGGGSGGGGSGGGGSQVQLVESGGGLVQAGGSLRLSCAASGYIFGRNAMGWYRQAPGKERELVAGITRRGSITYYADSVKGRFTISRDNAKNTVYLQMNSLKPEDTAVYYCAADPASPAYGDYWGQGTQVTVSS
IC50, pseudovirus infection assay [3]: 120 pM and 5 ng/mL

B4: Nb6-tri (trivalent Nb6 with two 20 amino acid linkers) (VHH)
chain: B3 chain with Y27I, Y105P, Y166I, Y244P, Y305I, Y383P
IC50, inhibition of pseudovirus infection of ACE2 expressing HEK293T cells [3]: 1.2 nM
fold enhancement of inhibitory activity against Nb6, pseudovirus [3]: 2000 fold
